For one assay, the system named is PC12 cells. The experiment in a line: Protection against MPTP toxicity in PC12 cells (MTT). Format: cell-based. To be noted: 4 nM progranulin 24 h pretreatment; 0-1000 μM MPTP 24 h. As to the method: PC12 cells were grown on collagen-coated 96-well plates, in Dulbecco's minimal essential medium (DMEM) in the presence of 10% fetal calf serum (FCS) supplemented with glutamine, penicillin and streptomycin. One day after plating (at 60-70% confluence, 40,000 cells/well), the growth medium was replaced by low-serum (2% FCS) medium with 4 nM progranulin (PGRN+) or without progranulin (PGRN−) (FIG. 19). […] 43(5-6):155-158 (2007)]

Assay [1] has as its system NSC-34 cells. The experiment in a line: NSC-34 serum deprivation with hPGRN protein (Alamar Blue). In kind it is cell-based. To be noted: hPGRN 100 ng/ml, Day 4, Alamar Blue. As for the experimental part:
Normal NSC-34 cells were maintained in culture using DMEM supplemented with 5% (v/v) fetal calf serum (FCS). Cells were aliquoted in 96-well plates at a density of 6,000 cells/well in 200 uL of DMEM 5% FCS. After 2 hours of culture (to ensure cell adhesion) media was removed, cells washed 1× with PBS and DMEM serum free medium with or without hPGRN (100 ng/ml) added to the cells. Following one and four days of culture remaining metabolically active cells were detected using the Alamar Blue® methodology (Molecular Probes/Invitrogen) following the manufacturer's instructions.

A further assay concerns rat motor neurons. To be noted: literature (Van Damme et al.); cited from earlier work.
Assay [2] has as its system NSC-34 cells. The experiment in a line: BSSG-induced toxicity in NSC-34 and NSC-34-hPGRN cells (MTT). In kind it is cell-based. As for the experimental part:
Normal NSC-34 and a stable NSC-34 transfectant that over expressed human PGRN (NSC-34-hPGRN) NCS34 were maintained in culture using DMEM supplemented with 5% (v/v) fetal calf serum (FCS). Cells were aliquoted in 96-well plates at a density of 8,000 cells/well in 200 uL of DMEM 5% FCS.d After two hours the neurotoxin Beta-sitosteryl glucoside (BSSG) was added at concentrations of 0, 100, 250, 500, 1000 and 2500 ng/mL with a final culture volume of 250 uL along with 0.1% (v/v) DMSO throughout. As a negative control for cell proliferation/survival, a series of wells were washed and media replaced with DMEM containing no FCS. Following 72 hours cell viability was measured using the MTT assay (Vybrant MTT Cell proliferation Assay; Invitrogen) according to manufacturer's instructions.
To determine if PGRN was capable of protecting NSC-34 cells against BSSG neurotoxicity a stable transfectant was developed to over express human PGRN constitutively.

B1: Progranulin: growth factor-like protein; human progranulin SEQ ID NO: 2 (protein, listed as Homo sapiens)
chain: MWTLVSWVALTAGLVAGTRCPDGQFCPVACCLDPGGASYSCCRPLLDKWPTTLSRHLGGPCQVDAHCSAGHSCIFTVSGTSSCCPFPEAVACGDGHHCCPRGFHCSADGRSCFQRSGNNSVGAIQCPDSQFECPDFSTCCVMVDGSWGCCPMPQASCCEDRVHCCPHGAFCDLVHTRCITPTGTHPLAKKLPAQRTNRAVALSSSVMCPDARSRCPDGSTCCELPSGKYGCCPMPNATCCSDHLHCCPQDTVCDLIQSKCLSKENATTDLLTKLPAHTVGDVKCDMEVSCPDGYTCCRLQSGAWGCCPFTQAVCCEDHIHCCPAGFTCDTQKGTCEQGPHQVPWMEKAPAHLSLPDPQALKRDVPCDNVSSCPSSDTCCQLTSGEWGCCPIPEAVCCSDHQHCCPQGYTCVAEGQCQRGSEIVAGLEKMPARRASLSHPRDIGCDQHTSCPVGQTCCPSLGGSWACCQLPHAVCCEDRQHCCPAGYTCNVKARSCEKEVVSAQPATFLARSPHVGVKDVECGEGHFCHDNQTCCRDNRQGWACCPYRQGVCCADRRHCCPAGFRCAARGTKCLRREAPRWDAPLRDPALRQLL
For the molecule B1, the “cell viability against MPTP (MTT)” value in the assay on PC12 cells was “protective effect”. Also, the “increase in cell survival following serum starvation” value in the assay on NSC-34 cells [1] is recorded as 2.5 fold. The “survival of rat motor neurons under serum deprivation” value in the assay with rat motor neurons is on record as “increased survival of rat motor neurons”. In the assay on NSC-34 cells [2] (PGRN over expression, 72 hours, no FCS), the “cell survival in serum free cultures (MTT)” value is “increased cell survival”. The “protection against BSSG neurotoxicity (MTT)” value in the assay on NSC-34 cells [2] (stable transfectant over expressing human PGRN, 72 hour, 1000 and 2500 ng/mL BSSG) is “protected NSC-34 cells”.

(Values after patent US20220265770A1, “TREATING NEURODEGENERATIVE DISEASES WITH PROGRANULIN” (NEURODYN, INC., priority 2008, published 2022).)
